Laboratory results: PMC4320653

Assays:
[1] = target: TRBP (Homo sapiens) (UniProt Q15633); conditions: cited from earlier work
[2] = target: human Dicer, wild type, full-length (human) (UniProt Q9UPY3); assay: ITC

Row | Kd [2] [nM] | dH [2] [kcal/mol] | stoichiometry N [2] | Molecule | Kd [1] [nM]
1 | – | – | – | TRBP (from UniProt Q15633) | 54000
2 | 4.3 | -23.2 | 1.35 | TRBP3: third dsRBD of human TRBP with its N-terminal extension, residues 258-366 (domain or fragment) NRGPGCTWDSLRNSVGEKILSLRSCSLGSLGALGPACCRVLSELSEEQAFHVSYLDIEELSLSGLCQCLVELSTQPATVCHGSATTREAARGEAARRALQYLKIMAGSK | –
3 | 2.8 | -15.9 | 0.84 | human TRBP (isoform TRBP2, 366 residues), full-length, residues 1-366 (natural protein) MSEEEQGSGTTTGCGLPSIEQMLAANPGKTPISLLQEYGTRIGKTPVYDLLKAEGQAHQPNFTFRVTVGDTSCTGQGPSKKAAKHKAAEVALKHLKGGSMLEPALEDSSSFSPLDSSLPEDIPVFTAAAAATPVPSVVLTRSPPMELQPPVSPQQSECNPVGALQELVVQKGWRLPEYTVTQESGPAHRKEFTMTCRVERFIEIGSGTSKKLAKRNAAAKMLLRVHTVPLDARDGNEVEPDDDHFSIGVGSRLDGLRNRGPGCTWDSLRNSVGEKILSLRSCSLGSLGALGPACCRVLSELSEEQAFHVSYLDIEELSLSGLCQCLVELSTQPATVCHGSATTREAARGEAARRALQYLKIMAGSK | –
